Reference: patent US20210101982A1

Biological target: PD-L1 on cells (cancer cell lines expressing PD-L1; PD-L1+ aAPC/CHO-K1 cells) (human) (UniProt Q9NZQ7)
Assay: cell-based or functional assay

Chain of PD-L1 on cells (cancer cell lines expressing PD-L1; PD-L1+ aAPC/CHO-K1 cells) (human) (Q9NZQ7 19-290): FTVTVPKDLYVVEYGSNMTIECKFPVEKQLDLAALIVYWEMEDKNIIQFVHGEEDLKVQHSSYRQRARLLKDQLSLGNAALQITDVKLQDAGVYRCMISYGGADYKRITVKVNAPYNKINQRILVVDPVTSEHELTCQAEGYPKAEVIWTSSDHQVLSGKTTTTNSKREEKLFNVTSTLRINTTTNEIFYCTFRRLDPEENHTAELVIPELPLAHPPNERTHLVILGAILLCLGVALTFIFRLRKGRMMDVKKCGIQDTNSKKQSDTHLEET

Atezolizumab - vc-MMAE (antibody)
> 3000 ng/mL: x50 (50% reduction in viability, CellTiter-Glo, 96 h) on 786-O cells | x50 (50% reduction in viability, CellTiter-Glo, 96 h) on BXPC3 cells | x50 (50% reduction in viability, CellTiter-Glo, 96 h) on KARPAS 299 cells | x50 (50% reduction in viability, CellTiter-Glo, 96 h) on L540CY cells | x50 (50% reduction in viability, CellTiter-Glo, 96 h) on MDA-MB-231 cells

Atezolizumab - MP-PEG8-VKG-Camptothecin (antibody)
> 3000 ng/mL: x50 (50% reduction in viability, CellTiter-Glo, 96 h) on 786-O cells | x50 (50% reduction in viability, CellTiter-Glo, 96 h) on BXPC3 cells | x50 (50% reduction in viability, CellTiter-Glo, 96 h) on KARPAS 299 cells | x50 (50% reduction in viability, CellTiter-Glo, 96 h) on L540CY cells | x50 (50% reduction in viability, CellTiter-Glo, 96 h) on MDA-MB-231 cells
